Data published in PMC4820748, “Structural basis for the membrane association of ankyrinG via palmitoylation” (Scientific Reports, 2016).

Biological target: the molecule itself
Test: crystal structure; oxidized form, C121 crystal; sitting-drop vapor diffusion at 20 °C; reservoir 10 mM MgCl2-hexahydrate, 50 mM Tris-HCl (pH 7.5), 1.6 M (NH4)2SO4; asymmetric unit holds one dimeric molecule

B1: AnkG (R1-R5), head-section of the membrane-binding domain of rat ankyrin-G (domain or fragment)
chain: GTKSDANASYLRAARAGHLEKALDYIKNGVDVNICNQNGLNALHLASKEGHVEVVSELLQREANVDAATKKGNTALHIASLAGQAEVVKVLVTNGANVNAQSQNGFTPLYMAAQENHLEVVRFLLDNGASQSLATEDGFTPLAVALQQGHDQVVSLLLENDTKGK
notes: two extra residues, Gly-Thr, left at the N-terminus after the TEV cleavage; In the oxidized form two chains are linked by a disulfide bond between the two Cys70 residues; in the reduced form Cys70 is free; also called ANK3 (R1-R5); AnkG palmitoylation domain; source: E. coli BL21(DE3)pLysS, purified (nickel column, TEV cleavage, superdex200 gel filtration); not shown: His tag, N-terminal, cleaved
stoichiometry N: 2
